Measurements: PMC3615900

Experiments:
Details in all cases: reference: wild type; sites S248
V5-14-3-3β = V5-14-3-3β (UniProt P31946); assay: co-IP with αV5, blot αFlag
14-3-3β [1] = biological target: 14-3-3β (UniProt P31946); assay: Flag-Rubicon complex purification, immunoblot
14-3-3β [2] = biological target: 14-3-3β (UniProt Q9CQV8); assay: co-IP with αFlag, blot α14-3-3β

Measured: binding against the reference

Rubicon (from UniProt Q92622) S248A
lost: all assays above
